Test results published in IntAct's records for PubMed 32494073.

B1: Calcium uptake protein 2, mitochondrial (Homo sapiens), Q8IYU8 (parent)
chain: MAAAAGSCARVAAWGGKLRRGLAVSRQAVRSPGPLAAAVAGAALAGAGAAWHHSRVSVAARDGSFTVSAQKNVEHGIIYIGKPSLRKQRFMQFSSLEHEGEYYMTPRDFLFSVMFEQMERKTSVKKLTKKDIEDTLSGIQTAGCGSTFFRDLGDKGLISYTEYLFLLTILTKPHSGFHVAFKMLDTDGNEMIEKREFFKLQKIISKQDDLMTVKTNETGYQEAIVKEPEINTTLQMRFFGKRGQRKLHYKEFRRFMENLQTEIQEMEFLQFSKGLSFMRKEDFAEWLLFFTNTENKDIYWKNVREKLSAGESISLDEFKSFCHFTTHLEDFAIAMQMFSLAHRPVRLAEFKRAVKVATGQELSNNILDTVFKIFDLDGDECLSHEEFLGVLKNRMHRGLWVPQHQSIQEYWKCVKKESIKGVKEVWKQAGKGLF
B2: Calcium uptake protein 1, mitochondrial (Homo sapiens), Q9BPX6 (parent)
chain: MFRLNSLSALAELAVGSRWYHGGSQPIQIRRRLMMVAFLGASAVTASTGLLWKRAHAESPPCVDNLKSDIGDKGKNKDEGDVCNHEKKTADLAPHPEEKKKKRSGFRDRKVMEYENRIRAYSTPDKIFRYFATLKVISEPGEAEVFMTPEDFVRSITPNEKQPEHLGLDQYIIKRFDGKKISQEREKFADEGSIFYTLGECGLISFSDYIFLTTVLSTPQRNFEIAFKMFDLNGDGEVDMEEFEQVQSIIRSQTSMGMRHRDRPTTGNTLKSGLCSALTTYFFGADLKGKLTIKNFLEFQRKLQHDVLKLEFERHDPVDGRITERQFGGMLLAYSGVQSKKLTAMQRQLKKHFKEGKGLTFQEVENFFTFLKNINDVDTALSFYHMAGASLDKVTMQQVARTVAKVELSDHVCDVVFALFDCDGNGELSNKEFVSIMKQRLMRGLEKPKDMGFTRLMQAMWKCAQETAWDFALPKQ
partner: B1 chain

Variants of: B1
Details: with micu1_human MICU1, Q9BPX6

Q: For R352E, which “effect of a mutation on the interaction” value is on record?
A: disrupting interaction strength

Variants of: B2
Details: with micu2_human MICU2, Q8IYU8

Q: With C463S as the variant, how does the “effect of a mutation on the interaction” value read?
A: with no effect
